Target: T1, polypeptide 2C01 (human rhinovirus (W10 (HRV-C15)))
T1 construct: synthetic peptide coated on the ELISA plate; also called 2C (aa 151-163)
T1 peptide: YSLPPDPKYFDGY
Test: indirect ELISA, peptide coated 1 ug/well, 9A5 at 2 ug/mL

B1: monoclonal antibody 9A5 (antibody, V domains shown)
VH: EVQLVESGGDLVKPGGSLKLSCAASGFTFSIYGMSWVRQTPDKRLEWVATISSAGIYTYYPDSVKGRFTISRDNAKNTLYLQMSSLKSEDTAMYYCARHGYGLFDVWGAGTTVTVSS
VL: not shown
notes: also called anti-C149-2C01 mouse monoclonal antibody
binding result: binds
